This note sets out measurements from patent US20190382481A1 (Janssen / Centocor, published 2019).

Experiment [1] concerns the target T1, human CD33 (human, UniProt P20138 18-364). The experiment can be described thus: cell-based or functional assay.
The target in experiment [2] is T2, Human CD33-C2-HSA (human).
T2 construct: C2 domain of human CD33 fused to HSA; also called C33W4; huCD33-C2-HSA
The experiment is described as follows: IBIS SPRi off-rate screen.

Experiment [3] addresses T3, Human CD33-V-HSA (human).
T3 construct: V domain of human CD33 fused to HSA; also called C33W3; huCD33-V-HSA
The experiment can be described thus: IBIS SPRi off-rate screen.

The target in experiment [4] is T4, Human CD33-V-HSA (human).
T4 construct: V domain of human CD33 fused to HSA (C58S) and six-histidine tag; also called C33W3; huCD33-V-HSA
The experiment can be described thus: SPRi off-rate screen, domain constructs.

For experiment [5], the target named is T5, Human CD33-C2-HSA (human).
T5 construct: C2 domain of human CD33 fused to HSA (C58S) and six-histidine tag; also called C33W4; huCD33-C2-HSA
The experiment can be described thus: SPRi off-rate screen, domain constructs.

Experiment [6] addresses T1, human CD33. The experiment is described as follows: cell-based or functional assay. The source holds these as a separate data set.
Experiment [7] deals with T1, human CD33. The experiment is described as follows: cell-based or functional assay. The source holds these as a separate data set.
For experiment [8], the target named is cyno CD33 (cynomolgus monkey). The experiment is described as follows: cell-based or functional assay.
cyno CD33 (cynomolgus monkey), sequence (chain, as listed by the source limits assumed): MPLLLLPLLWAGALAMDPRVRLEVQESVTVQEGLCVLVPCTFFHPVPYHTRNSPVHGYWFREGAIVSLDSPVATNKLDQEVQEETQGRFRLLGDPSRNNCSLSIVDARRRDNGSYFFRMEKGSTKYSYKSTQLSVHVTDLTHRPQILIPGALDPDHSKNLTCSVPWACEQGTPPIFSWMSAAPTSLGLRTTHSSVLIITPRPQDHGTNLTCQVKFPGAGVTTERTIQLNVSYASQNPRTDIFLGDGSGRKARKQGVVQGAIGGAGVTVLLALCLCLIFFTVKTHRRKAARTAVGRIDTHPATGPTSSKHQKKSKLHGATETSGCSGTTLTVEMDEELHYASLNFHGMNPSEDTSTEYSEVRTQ
For experiment [9], the target named is T1, human CD33. The experiment can be described thus: cell-based or functional assay. This is another data set of the same source.

T1 sequence (P20138 18-364 limits assumed): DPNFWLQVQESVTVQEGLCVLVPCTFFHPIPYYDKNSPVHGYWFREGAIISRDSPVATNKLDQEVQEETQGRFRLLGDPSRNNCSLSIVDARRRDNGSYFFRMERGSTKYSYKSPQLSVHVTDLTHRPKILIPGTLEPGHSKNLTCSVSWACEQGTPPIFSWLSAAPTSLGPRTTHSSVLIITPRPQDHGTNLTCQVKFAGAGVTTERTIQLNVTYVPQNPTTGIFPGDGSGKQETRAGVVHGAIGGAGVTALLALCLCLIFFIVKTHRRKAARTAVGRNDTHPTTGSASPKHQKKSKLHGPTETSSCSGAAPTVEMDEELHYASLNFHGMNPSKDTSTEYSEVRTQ

B1: C33B937 (antibody, human IgG4 S228P, lambda, F234A L235A, V domains shown)
VH: QVQLVESGGGVVQPGRSLRLSCVASGFTFSSYGMHWVRQAPGKGLEWVAVISYDGSNKYYADSVKGRFTISRDNSKNTLYLQMNSLRAEGTAVYYCAKDFRSFDWLPPDSASYHGMDVWGQGTTVTVSS
VL: SYELTQPPSVSVSPGQTASITCSGDKLGDKYASWYQQKPGQSPVLVIYQDGKRPSGIPERFSGSNFGNKATLTISGTQAMDEADYYCQAWDRNTVVFGGGTKLTVLG
Turning to B1, in [1], the “EC50 (nM), CD33 internalization assay (Protein A-MMAF cell viability, MOLM13)” value (shortened to “EC50 (nM), CD33 internalization assay”) came out at 1.92 nM.

B2: C33B782 (antibody, human IgG4 S228P, lambda, F234A L235A)
heavy: not shown
light: SYELTQPPSVSVSPGQTASITCSGNKLGAKFASWYQQKPGQSPVLVIYQDNKRPSGIPERFSGSNSGNTATLTISGTQAVDEADYYCQAWDSSTVVFGGGTKLTVLGQPKAAPSVTLFPPSSEELQANKATLVCLISDFYPGAVTVAWKADSSPVKAGVETTTPSKQSNNKYAASSYLSLTPEQWKSHRSYSCQVTHEGSTVEKTVAPTECS
For the molecule B2, the “EC50 (nM), CD33 internalization assay” value in experiment [1] turned out to be 0.88 nM.

B3: C33B782 (antibody, human IgG4 S228P, lambda, F234A L235A)
heavy: not shown
light: SYELTQPPSVSVSPGQTASITCSGNKLGAKFASWYQQKPGQSPVLVIYQDNKRPSGIPERFSGSNSGNTATLTISGTQAVDEADYYCQAWDSSTVVFGGGTKLTVLGQPKAAPSVTLFPPSSEELQANKATLVCLISDFYPGAVTVAWKADSSPVKAGVETTTPSKQSNNKYAASSYLSLTPEQWKSHRSYSCQVTHEGSTVEKTVAPTECS
notes: huIgG4 PAA; HC C33H72, LC C33L40 (same V region as C33B77); also called C33F82
For B3, the binding result in [2] and in experiment [3] was “no binding” throughout.

B4: C33B778 (antibody, human IgG4 S228P, lambda, F234A L235A)
heavy: not shown
light: SYELTQPPSVSVSPGQTASITCSGDKLGDKYACWYQQKPGQSPVLVIYQDGKRPSGIPERFSGSNFGNKATLTISGTQAMDEADYYCQAWDRNTVVFGGGTKLTVLGQPKAAPSVTLFPPSSEELQANKATLVCLISDFYPGAVTVAWKADSSPVKAGVETTTPSKQSNNKYAASSYLSLTPEQWKSHRSYSCQVTHEGSTVEKTVAPTECS
notes: huIgG4 PAA; HC C33H66, LC C33L60 (same V region as C33B73); also called C33F78
With B4, the binding result in [3] is recorded as “no binding”.

B5: C33B782 (antibody, human IgG4 S228P, lambda, F234A L235A)
heavy: not shown
light: SYELTQPPSVSVSPGQTASITCSGNKLGAKFASWYQQKPGQSPVLVIYQDNKRPSGIPERFSGSNSGNTATLTISGTQAVDEADYYCQAWDSSTVVFGGGTKLTVLGQPKAAPSVTLFPPSSEELQANKATLVCLISDFYPGAVTVAWKADSSPVKAGVETTTPSKQSNNKYAASSYLSLTPEQWKSHRSYSCQVTHEGSTVEKTVAPTECS
notes: huIgG4 PAA; OMNIRat campaign; also called C33H72/C33L40
B5: the binding result in experiment [4] and in experiment [5] was “no binding” in each case.

B6: C33B778 (antibody, human IgG4 S228P, lambda, F234A L235A)
heavy: not shown
light: SYELTQPPSVSVSPGQTASITCSGDKLGDKYACWYQQKPGQSPVLVIYQDGKRPSGIPERFSGSNFGNKATLTISGTQAMDEADYYCQAWDRNTVVFGGGTKLTVLGQPKAAPSVTLFPPSSEELQANKATLVCLISDFYPGAVTVAWKADSSPVKAGVETTTPSKQSNNKYAASSYLSLTPEQWKSHRSYSCQVTHEGSTVEKTVAPTECS
notes: huIgG4 PAA; OMNIRat campaign; also called C33H66/C33L60
Turning to B6, the binding result in experiment [4] is given as “no binding”.

B7: C33B792 (antibody, human IgG4 S228P, lambda, F234A L235A)
heavy: not shown
light: SYELTQPPSVSVSPGQTASITCSGDKLGNKYASWYQQKPGQSPVLVIYQDTKRPSGIPERVSGSNSGNTATLTISGTQAMDEADYHCQAWDSSTVVFGGGTKLTVLGQPKAAPSVTLFPPSSEELQANKATLVCLISDFYPGAVTVAWKADSSPVKAGVETTTPSKQSNNKYAASSYLSLTPEQWKSHRSYSCQVTHEGSTVEKTVAPTECS
notes: huIgG4 PAA; OMNIRat campaign; also called C33H87/C33L35
As to B7, the binding result in experiment [4] and in [5] was “no binding” throughout.

B8: C33B792 (antibody, human IgG4 S228P, lambda, F234A L235A)
heavy: not shown
light: SYELTQPPSVSVSPGQTASITCSGDKLGNKYASWYQQKPGQSPVLVIYQDTKRPSGIPERVSGSNSGNTATLTISGTQAMDEADYHCQAWDSSTVVFGGGTKLTVLGQPKAAPSVTLFPPSSEELQANKATLVCLISDFYPGAVTVAWKADSSPVKAGVETTTPSKQSNNKYAASSYLSLTPEQWKSHRSYSCQVTHEGSTVEKTVAPTECS
notes: huIgG4 PAA; HC C33H87, LC C33L35 (same V region as C33B87); also called C33F92
B8: the binding result in experiment [2] and in [3] was “no binding” in each case.

B9: C33B836 (antibody, human IgG4 S228P, lambda, F234A L235A)
heavy: not shown
light: QSALTQPASVSGSPGQSITISCTGTSSDVGDYNYVSWYQQHPGKVPKLMIYDVSNRPSGVSNRFSGSMSGNTASLTISGLQAEDEADYYCSSYSSSSALEVFGGGTKLTVLGQPKAAPSVTLFPPSSEELQANKATLVCLISDFYPGAVTVAWKADSSPVKAGVETTTPSKQSNNKYAASSYLSLTPEQWKSHRSYSCQVTHEGSTVEKTVAPTECS
As to B9, the “EC50 (nM), CD33 internalization assay” value in experiment [1] was determined as 0.04 nM.

B10: C33B836 (antibody, human IgG4 S228P, lambda, F234A L235A)
heavy: not shown
light: QSALTQPASVSGSPGQSITISCTGTSSDVGDYNYVSWYQQHPGKVPKLMIYDVSNRPSGVSNRFSGSMSGNTASLTISGLQAEDEADYYCSSYSSSSALEVFGGGTKLTVLGQPKAAPSVTLFPPSSEELQANKATLVCLISDFYPGAVTVAWKADSSPVKAGVETTTPSKQSNNKYAASSYLSLTPEQWKSHRSYSCQVTHEGSTVEKTVAPTECS
notes: huIgG4 PAA; HC C33H80, LC C33L73 (same V region as C33B48); also called C33F53
In the case of B10, in experiment [2], the binding result is reported as “no binding”.

B11: C33B836 (antibody, human IgG4 S228P, lambda, F234A L235A)
heavy: not shown
light: QSALTQPASVSGSPGQSITISCTGTSSDVGDYNYVSWYQQHPGKVPKLMIYDVSNRPSGVSNRFSGSMSGNTASLTISGLQAEDEADYYCSSYSSSSALEVFGGGTKLTVLGQPKAAPSVTLFPPSSEELQANKATLVCLISDFYPGAVTVAWKADSSPVKAGVETTTPSKQSNNKYAASSYLSLTPEQWKSHRSYSCQVTHEGSTVEKTVAPTECS
notes: huIgG4 PAA; OMNIRat campaign; also called C33H80/C33L73
Turning to B11, the binding result in experiment [5] is on record as “no binding”.

B12: C3CB189 (bispecific antibody, human IgG4 S228P, kappa, lambda, F234A L235A)
heavy 1: not shown
light 1: not shown
heavy 2: QVQLQQSGPRLVRPSQTLSLTCAISGDSVFNNNAAWSWIRQSPSRGLEWLGRTYYRSKWLYDYAVSVKSRITVNPDTSRNQFTLQLNSVTPEDTALYYCARGYSSSFDYWGQGTLVTVSSASTKGPSVFPLAPCSRSTSESTAALGCLVKDYFPEPVTVSWNSGALTSGVHTFPAVLQSSGLYSLSSVVTVPSSSLGTKTYTCNVDHKPSNTKVDKRVESKYGPPCPPCPAPEAAGGPSVFLFPPKPKDTLMISRTPEVTCVVVDVSQEDPEVQFNWYVDGVEVHNAKTKPREEQFNSTYRVVSVLTVLHQDWLNGKEYKCKVSNKGLPSSIEKTISKAKGQPREPQVYTLPPSQEEMTKNQVSLTCLVKGFYPSDIAVEWESNGQPENNYKTTPPVLDSDGSFLLYSKLTVDKSRWQEGNVFSCSVMHEALHNHYTQKSLSLSLGK
light 2: QSALTQPASVSGSPGQSITISCTGTSSNIGTYKFVSWYQQHPDKAPKVLLYEVSKRPSGVSSRFSGSKSGNTASLTISGLQAEDQADYHCVSYAGSGTLLFGGGTKLTVLGQPKAAPSVTLFPPSSEELQANKATLVCLISDFYPGAVTVAWKADSSPVKAGVETTTPSKQSNNKYAASSYLSLTPEQWKSHRSYSCQVTHEGSTVEKTVAPTECS
Consider B12, for which the “Primary AML Cell Killing EC50 (nM), ex vivo AML patient whole blood” value in experiment [6] turned out to be 0.578 nM. Besides, in [7], the “IFN-gamma release, Median EC50” value stood at 0.16 nM; the “IL-1beta release, Median EC50” value is 0.045 nM; the “IL-2 release, Median EC50” value turned out to be 0.346 nM; the “IL-4 release, Median EC50” value was found to be 0.078 nM. In addition, in experiment [7], the “IL-8 release, Median EC50” value is 0.042 nM; the “IL-10 release, Median EC50” value amounted to 0.123 nM; the “IL-13 release, Median EC50” value stood at 0.034 nM; the “TNF-alpha release, Median EC50” value is 0.208 nM. Further, in experiment [8], the “CD33^+ CD14^+ Killing EC50 (nM), ex vivo cynomolgus whole blood” value was 3.6 nM and the “T cell activation EC50 (nM), ex vivo cynomolgus whole blood” value was 0.02 nM. Moreover, in experiment [9], the “CD33^+ CD14^+ Killing EC50 (nM), ex vivo human whole blood” value is 1.16 nM and the “MOLM13 Killing EC50 (nM), ex vivo human whole blood” value is 0.168 nM.
